Experimental data from publication PMC11134608, “UBR5 forms ligand-dependent complexes on chromatin to regulate nuclear hormone receptor stability” (Molecular cell, 2023).

Target: Full-length human FLAG-UBR5 (human) (UniProt O95071)
Assay: SEC-MALS; purified UBR5 full length and Δtandem variant
Conditions: remark: other sources report otherwise

Substance: Full-length human FLAG-UBR5, O95071 1-2799
- stoichiometry N: 4
